Test results published in publication PMC6396024, “Artemin and an Artemin-Derived Peptide, Artefin, Induce Neuronal Survival, and Differentiation Through Ret and NCAM” (Frontiers in Molecular Neuroscience, 2019).
Bridge positions count the residues as written; N and C are the ends. Ends that are not written are not given here. I, II: the chains in the order shown.

How the values were obtained:
GFRα1 [1] = assay: SPR binding to immobilized GFRα1/Fc; conditions: artefin 15.6 μM
RET = RET phosphorylation assay in PC12-E2 cells; type: cell-based; conditions: PC12-E2, 10 min; ARTN 2.1 nM, artefin 12.64 μM; phosphotyrosine/total RET by immunoblot; control = 100%
Method: The pheochromocytoma cell line PC12-E2 (gift from Dr. Klaus Seedorf, Hagedorn Research Institute, Gentofte Municipality, Denmark) was propagated in Dulbecco’s modified Eagle’s medium (DMEM) supplemented with 5% (v/v) fetal calf serum (FCS), 10% (v/v) horse serum (HS), 1% (v/v) glutamax, 100 U/ml penicillin, and 100 μg/ml streptomycin. Cells were grown at 37°C in a humidified atmosphere containing 5% CO2.
Phosphorylation of RET was assayed in PC12-E2 cells. Cells were seeded at a density of 7 × 10^4 cells/cm^2 in 6 cm cell culture dishes (Nunc) and grown for 24 h. Cells were then grown in starvation medium (growth media with FCS switched to 1%) for 4 h before being stimulated with recombinant human ARTN (2.1 nM) or artefin (12.64 μM) for 10 min. Non-stimulated cells served as a control. Cell lysates were separated by SDS-polyacrylamide gel electrophoresis (SDS-PAGE) and transferred to an Immobilon-P membrane (Millipore, Billerica, MA, United States). Membranes were stained with mouse anti-phosphotyrosine antibody (BD Transduction Lab, New York City, NY, United States; 1:500) or RET (goat anti-mouse antibody, R&D systems, 1:500), followed by incubation with HRP-conjugated anti-mouse IgG. […] RET phosphorylation was determined as the ratio between phosphorylated and total RET. […]

[2] = Circular dichroism spectroscopy; type: physicochemical; conditions: 10 μM, 10 mM NaH2PO4 pH 7.0, room temperature, tetrameric peptide
Method: Circular dichroism (CD) spectra were measured over the range 190–250 nm using a Jasco J-810 spectropolarimeter in cells with path length 1 mm at room temperature. The peptide was dissolved in 10 mM NaH2PO4 buffer, pH 7.0, to the final concentration 10 μM. Data were recorded at a scan speed of 20 nm/min with 10 repeat scans accumulated to obtain the final average spectra. Following the buffer subtraction, the observed ellipticity θ (mdeg) was converted to mean residue ellipticity [θ] (deg cm^2/dmol) using the following relationship [θ] = 100θ /(lcn) where ‘l’ is path length in centimeters, ‘c’ is the millimolar concentration, and ‘n’ is the number of residues in the peptide.

GFRα2 [3] = assay: SPR binding to immobilized GFRα2/Fc; conditions: artefin 15.6 μM
[4] = target: T1, recombinant human GFRα3/Fc (human, UniProt O60609 32-374); assay: SPR; Biacore 2000, 25°C, HBS-EP (10 mM HEPES pH 7.4, 150 mM NaCl, 3 mM EDTA, 0.005% P20); ARTN (~2300 RU) or artefin (~1600 RU) amine-coupled on a CM4 chip; serially diluted GFRα3/Fc or NCAM Ig1–3 injected at 20 μl/min; 1:1 interaction model or steady-state affinity analysis; conditions: both partners purified
T1 construct: GDNF family receptor alpha-3 (GFRα3), human; Commercial Fc chimera; also called GFL receptor α3; source: bought: R&D Systems
T1 sequence (looked up): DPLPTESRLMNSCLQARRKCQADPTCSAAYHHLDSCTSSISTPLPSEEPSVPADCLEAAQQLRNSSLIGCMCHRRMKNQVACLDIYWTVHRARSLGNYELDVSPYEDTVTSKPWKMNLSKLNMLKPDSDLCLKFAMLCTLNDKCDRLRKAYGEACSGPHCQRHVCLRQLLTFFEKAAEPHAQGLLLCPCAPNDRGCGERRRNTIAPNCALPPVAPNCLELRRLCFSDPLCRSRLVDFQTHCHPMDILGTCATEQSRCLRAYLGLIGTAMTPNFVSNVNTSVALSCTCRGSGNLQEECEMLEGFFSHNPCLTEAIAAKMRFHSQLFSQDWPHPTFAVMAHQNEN

[5] = target: T2, recombinant rat NCAM Ig1–3 (rat, UniProt P13596 20-308); assay: as above; conditions: both partners purified
T2 construct: neural cell adhesion molecule (NCAM), rat, Ig1–3 domains; also called NCAM Ig1–3 domain; source: recombinant, produced as described previously (Soroka et al., 2003)
T2 sequence (P13596 20-308): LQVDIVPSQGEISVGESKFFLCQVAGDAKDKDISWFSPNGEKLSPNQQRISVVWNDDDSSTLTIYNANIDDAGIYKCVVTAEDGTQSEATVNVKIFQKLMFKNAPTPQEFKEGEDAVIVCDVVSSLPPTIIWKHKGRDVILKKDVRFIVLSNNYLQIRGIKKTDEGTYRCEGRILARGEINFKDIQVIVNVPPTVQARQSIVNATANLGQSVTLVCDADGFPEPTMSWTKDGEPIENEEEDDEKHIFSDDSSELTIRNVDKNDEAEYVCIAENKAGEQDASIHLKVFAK

[6] = system: patients with lumbosacral radiculopathy; conditions: intravenous, Phase 2; particularly at the lowest dose; ref Backonja et al., 2017; cited from earlier work
Excerpt: (§1) Results from Phase 1 clinical trials ([Rolan et al., 2015]; [Okkerse et al., 2016]) further support the application of ARTN for treatment of peripheral nerve injury and attenuation of neuropathic pain. A recent Phase 2 trial (SPRINT) that evaluated the sa ...

[7] = system: surgically and chemically induced nerve injury models; conditions: systemic treatment; ref Gardell et al., 2003; Bennett et al., 2006; Wang et al., 2008; Wong et al., 2015; cited from earlier work
Excerpt: as §1

GFRα2 [8] = system: GFRα2; design: method as in Scott and Ibañéz, 2001; conditions: previously shown; ref Scott and Ibañéz, 2001; cited from earlier work
GFRα1 [9] = system: GFRα1; design: method as in Scott and Ibañéz, 2001; conditions: previously shown; ref Scott and Ibañéz, 2001; cited from earlier work

Molecule	binding to GFRα1 (GFRα1 [1])	RET phosphorylation compared to unstimulated control (RET) [%]	far-UV CD bands ([2]; 190–250 nm)	secondary structure in solution (far-UV CD) [2]	binding to GFRα2 (GFRα2 [3])	Kd [4] [µM]	Kd [5] [µM]	reducing pain in patients with lumbosacral radiculopathy [6]	effect on behavioral symptoms of neuropathic pain [7]	interaction with GFRα2 (GFRα2 [8])	interaction with GFRα1 (GFRα1 [9])
I: RSPHDLSLASLLGAGKK-NH2 / II: RSPHDLSLASLLGAGK / III: RSPHDLSLASLLGAG / IV: RSPHDLSLASLLGAG (amide I:16-IV:C, I:17-II:C, II:16-III:C; C-terminus assumed) [artefin]	binds to GFRα1	~500	negative band at 208 nm, a shoulder at 222 nm, and a positive band at 193 nm	a-helix confirmation is dominant	binds to GFRα1 and GFRα2	–	–	–	–	–	–
recombinant human Artemin (ARTN) (ligand, UniProt Q5T4W7 108-220, looked up, Artemin (ARTN), human, UniProt D3DPX9; source: bought: R&D Systems) AGGPGSRARAAGARGCRLRSQLVPVRALGLGHRSDELVRFRFCSGSCRRARSPHDLSLASLLGAGALRPPPGSRPVSQPCCRPTRYEAVSFMDVNSTWRTVDRLSATACGCLG	–	~600	–	–	–	0.0027	13	showed evidence of pain relief	mitigates behavioral symptoms associated with neuropathic pain	previously been shown to interact with GFRα1and GFRα2	previously been shown to interact with GFRα1
